Source: patent publication US20110207796

Molecular target: human alpha-synuclein (wild-type, recombinant)

B1: IKBKB (protein)
chain: MSWSPSLTTQTCGAWEMKERLGTGGFGNVIRWHNQETGEQIAIKQCRQELSPRNRERWCLEIQIMRRLTHPNVVAARDVPEGMQNLAPNDLPLLAMEYCQGGDLRKYLNQFENCCGLREGAILTLLSDIASALRYLHENRIIHRDLKPENIVLQQGEQRLIHKIIDLGYAKELDQGSLCTSFVGTLQYLAPELLEQQKYTVTVDYWSFGTLAFECITGFRPFLPNWQPVQWHSKVRQKSEVDIVVSEDLNGTVKFSSSLPYPNNLNSVLAERLEKWLQLMLMWHPRQRGTDPTYGPNGCFKALDDILNLKLVHILNMVTGTIHTYPVTEDESLQSLKARIQQDTGIPEEDQELLQEAGLALIPDKPATQCISDGKLNEGHTLDMDLVFLFDNSKITYETQISPRPQPESVSCILQEPKRNLAFFQLRKVWGQVWHSIQTLKEDCNRLQQGQRAAMMNLLRNNSCLSKMKNSMASMSQQLKAKLDFFKTSIQIDLEKYSEQTEFGITSDKLLLAWREMEQAVELCGRENEVKLLVERMMALQTDIVDLQRSPMGRKQGGTLDDLEEQARELYRRLREKPRDQRTEGDSQEMVRLLLQAIQSFEKKVRVIYTQLSKTVVCKQKALELLPKVEEVVSLMNEDEKTVVRLQEKRQKELWNLLKIACSKVRGPVSGSPDSMNASRLSQPGQLMSQPSTASNSLPEPAKKSEELVAEAHNLCTLLENAIQDTVREQDQSFTALDWSWLQTEEEEHSCLEQAS
- in vitro kinase reaction, phosphorylation of alpha-synuclein: shown to be incapable of directly phosphorylating alpha-synuclein
